Square brackets hold non-standard residues; d marks the D form. Ends that are not written are not given here. pGlu = O=C1CC[C@@H](C(=O)O)N1

In this test the target is T1, mouse ADAMTS7 (Mus musculus, UniProt Q68SA9, E373Q).
T1 construct: Full-length mouse Adamts7 1-1857 (Uniprot Q68SA9, WT or E373Q catalytic mutant); expressed in transfected cells; host or cells: Human Coronary Artery Smooth Muscle Cells (HCA-SMC, Lonza), adenovirus 50 MOI
T1 sequence (Q68SA9 221-1657 E373Q): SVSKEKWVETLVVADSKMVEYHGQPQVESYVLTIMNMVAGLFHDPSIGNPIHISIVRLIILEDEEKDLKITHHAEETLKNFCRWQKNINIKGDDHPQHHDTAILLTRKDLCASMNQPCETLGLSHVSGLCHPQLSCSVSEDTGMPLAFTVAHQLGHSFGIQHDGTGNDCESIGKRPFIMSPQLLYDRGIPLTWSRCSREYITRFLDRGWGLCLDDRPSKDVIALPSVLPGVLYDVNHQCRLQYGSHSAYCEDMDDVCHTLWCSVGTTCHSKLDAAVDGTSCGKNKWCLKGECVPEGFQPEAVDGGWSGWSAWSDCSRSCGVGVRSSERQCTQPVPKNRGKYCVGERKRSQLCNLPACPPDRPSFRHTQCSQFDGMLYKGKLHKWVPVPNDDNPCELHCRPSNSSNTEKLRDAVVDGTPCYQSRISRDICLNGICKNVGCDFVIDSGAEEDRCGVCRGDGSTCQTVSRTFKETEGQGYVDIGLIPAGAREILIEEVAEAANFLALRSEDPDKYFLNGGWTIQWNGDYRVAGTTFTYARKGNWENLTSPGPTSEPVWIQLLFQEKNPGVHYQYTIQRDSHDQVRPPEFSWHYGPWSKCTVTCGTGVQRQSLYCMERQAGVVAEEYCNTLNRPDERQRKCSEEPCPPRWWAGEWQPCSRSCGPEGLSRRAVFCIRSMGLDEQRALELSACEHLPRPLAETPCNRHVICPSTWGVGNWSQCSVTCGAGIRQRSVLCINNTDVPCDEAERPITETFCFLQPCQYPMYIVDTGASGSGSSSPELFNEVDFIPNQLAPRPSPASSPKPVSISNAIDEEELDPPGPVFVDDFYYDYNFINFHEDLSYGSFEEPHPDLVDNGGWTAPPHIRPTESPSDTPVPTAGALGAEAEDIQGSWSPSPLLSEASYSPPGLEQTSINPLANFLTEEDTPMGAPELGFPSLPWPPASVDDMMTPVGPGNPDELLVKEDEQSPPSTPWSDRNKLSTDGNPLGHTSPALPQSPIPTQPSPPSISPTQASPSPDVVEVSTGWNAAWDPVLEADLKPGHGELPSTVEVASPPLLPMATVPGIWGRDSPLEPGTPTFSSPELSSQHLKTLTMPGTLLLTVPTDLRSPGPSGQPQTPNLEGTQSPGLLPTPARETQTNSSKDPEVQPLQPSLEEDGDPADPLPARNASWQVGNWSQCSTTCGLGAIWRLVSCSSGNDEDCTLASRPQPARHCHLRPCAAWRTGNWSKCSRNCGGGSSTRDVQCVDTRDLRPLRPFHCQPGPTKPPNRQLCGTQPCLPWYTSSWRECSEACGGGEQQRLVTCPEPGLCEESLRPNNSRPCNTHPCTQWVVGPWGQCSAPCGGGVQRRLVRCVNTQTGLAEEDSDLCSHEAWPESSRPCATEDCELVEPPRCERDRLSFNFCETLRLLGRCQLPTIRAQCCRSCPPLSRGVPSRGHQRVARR
Kind of test: TMT10 TAILS N-terminomics, SMC1 experiment (Ad-mADAMTS7 WT vs EQ vs Luc, technical replicates, trypsin digest). The class given is cell-based. The following applies: TAILS neo-N-terminal peptide abundance; log fold change, Ad-mADAMTS7 EQ over Luc. The procedure, abridged: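 Full-length mouse ADAMTS7 (WT or E373Q mutant, C-terminal 3xFLAG) or luciferase was transduced via adenovirus, 50 MOI, into HCA-SMC (SMC1, SMC2) or HUVEC. SMC1: pooled media, technical triplicates 400 ug; SMC2: process triplicates 300 ug; HUVEC: process triplicates 200 ug, bFGF2 10 ng/ml.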
“ACTB_21 (FAGDDAPR; listed as Homo sapiens)” showed a logFC.mEQ.over.Luc of −0.08.

Take “ACTB_105 (LTEAPLNPKANR; listed as Homo sapiens)”: the logFC.mEQ.over.Luc is −0.12.

Regarding “ADAM9_69 (VIQAEGKEHIIHLER; listed as Homo sapiens)”, the logFC.mEQ.over.Luc is −0.10.

“AEBP1_37 (FLEGFLSELEPEPR; listed as Homo sapiens)” registered a logFC.mEQ.over.Luc of −0.18.

For the substance “APLP2_579 (ISETPVDVR; listed as Homo sapiens)”, the logFC.mEQ.over.Luc was found to be 0.27.

“CCDC80_66 (LEEPNLQPLQR; listed as Homo sapiens)” returned a logFC.mEQ.over.Luc of 0.14.

As for “ECM1_134 (FGDQSHPEPESWNAAQHCQQDR; listed as Homo sapiens)”, the logFC.mEQ.over.Luc is 0.28.

The substance “EFEMP1_124 (AVAGPEMQTGR; listed as Homo sapiens)” gave a logFC.mEQ.over.Luc of −0.59.

In turn, “EFEMP1_125 (VAGPEMQTGR; listed as Homo sapiens)” returned a logFC.mEQ.over.Luc of −0.33.

In turn, “EFHD2_67 (QGIGEPQSPSR; listed as Homo sapiens)” had a logFC.mEQ.over.Luc of −0.09.

“EHBP1L1_298 (TAPTPAPR; listed as Homo sapiens)” had a logFC.mEQ.over.Luc of −0.22.

Substance “FBLN2_259 (ALGPPAPVQAKAR; listed as Homo sapiens)” displayed a logFC.mEQ.over.Luc of −0.01.

In turn, “FBLN2_260 (LGPPAPVQAKAR; listed as Homo sapiens)” came in with a logFC.mEQ.over.Luc of −0.74.

For the substance “FBN1_29 (LEAGNVKETR; listed as Homo sapiens)”, the logFC.mEQ.over.Luc turned out to be 0.21.

As for “FBN1_53 (LKGPNVCGSR; listed as Homo sapiens)”, the logFC.mEQ.over.Luc is −0.04.

“FLNA_612 (SVEGPSQAKIECDDKGDGSCDVR; listed as Homo sapiens)” returned a logFC.mEQ.over.Luc of 0.19.

Regarding “FLNA_695 (FTVDAKHGGKAPLR; listed as Homo sapiens)”, the logFC.mEQ.over.Luc is recorded as −0.25.

Turning to “FLNA_1285 (LTQTGGPHVKAR; listed as Homo sapiens)”, the logFC.mEQ.over.Luc was −0.11.

Turning to “FN1_36 (MVQPQSPVAVSQSKPGCYDNGKHYQINQQWER; listed as Homo sapiens)”, the logFC.mEQ.over.Luc was found to be 0.39.

“FN1_40 (QSPVAVSQSKPGCYDNGKHYQINQQWER; listed as Homo sapiens)” had a logFC.mEQ.over.Luc of −0.40.

Regarding “FN1_45 (VSQSKPGCYDNGKHYQINQQWER; listed as Homo sapiens)”, the logFC.mEQ.over.Luc is listed as 0.49.

The substance “FN1_47 ([code q]SKPGCYD[code n]GKHYQINQQWER; not fully specified; listed as Homo sapiens)” gave a logFC.mEQ.over.Luc of 0.19.

“FN1_281 (SGSGPFTDVR; listed as Homo sapiens)” came in with a logFC.mEQ.over.Luc of 0.56.

For the substance “FN1_282 (GSGPFTDVR; listed as Homo sapiens)”, the logFC.mEQ.over.Luc is reported as −0.15.

As for “FN1_886 (NQESTPVVIQQETTGTPR; listed as Homo sapiens)”, the logFC.mEQ.over.Luc is 0.49.

Turning to “FN1_1143 (LTPGVEYVYTIQVLR; listed as Homo sapiens)”, the logFC.mEQ.over.Luc amounted to 0.00.

“FN1_1656 (SSSPVTGYR; listed as Homo sapiens)”: the logFC.mEQ.over.Luc was −0.08.

“FN1_1731 (FTDVDVDSIKIAWESPQGQVSR; listed as Homo sapiens)” returned a logFC.mEQ.over.Luc of −0.11.

Consider “FN1_2143 (FEEHGFR; listed as Homo sapiens)”, for which the logFC.mEQ.over.Luc is recorded as −0.13.

Substance “FN1_2217 (FQDTSEYIISCHPVGTDEEPLQFR; listed as Homo sapiens)” registered a logFC.mEQ.over.Luc of 0.14.

In turn, “GALNT2_31 (LAGGAGGGAGR; listed as Homo sapiens)” gave a logFC.mEQ.over.Luc of −0.43.

On to “GSN_35 (SQAGAPQGR; listed as Homo sapiens)”, for which the logFC.mEQ.over.Luc is 0.05.

As to “GSN_413 (HIANVER; listed as Homo sapiens)”, the logFC.mEQ.over.Luc is reported as −0.20.

As to “HEG1_49 (GAGLELQLER; listed as Homo sapiens)”, the logFC.mEQ.over.Luc was 0.51.

Substance “HLA−C_52 (VDDTQFVR; listed as Homo sapiens)” gave a logFC.mEQ.over.Luc of 0.35.

With “HSPG2_275 (LLPGSVR; listed as Homo sapiens)”, the logFC.mEQ.over.Luc amounted to 0.38.

On to “HSPG2_1937 (SSAGQQVAR; listed as Homo sapiens)”, for which the logFC.mEQ.over.Luc was −0.15.

In turn, “HSPG2_2331 (ANLAYPAGSTQPIR; listed as Homo sapiens)” returned a logFC.mEQ.over.Luc of 0.03.

For the substance “HSPG2_2333 (LAYPAGSTQPIR; listed as Homo sapiens)”, the logFC.mEQ.over.Luc was found to be 0.01.

With “HSPG2_2688 (VADSGEYVCR; listed as Homo sapiens)”, the logFC.mEQ.over.Luc worked out at 0.14.

“HSPG2_3250 (SPLPWQHR; listed as Homo sapiens)” came in with a logFC.mEQ.over.Luc of 0.00.

Regarding “HSPG2_3542 (IAHVELADAGQYR; listed as Homo sapiens)”, the logFC.mEQ.over.Luc is recorded as −0.07.

In turn, “HSPG2_3647 ([pGlu]GKVKAFAHLQVPER; listed as Homo sapiens)” came in with a logFC.mEQ.over.Luc of −0.26.

“HSPG2_3672 (SFLPLPTIKDAYR; listed as Homo sapiens)” showed a logFC.mEQ.over.Luc of 0.06.

“HSPG2_3813 (SSGFIGCVR; listed as Homo sapiens)”: the logFC.mEQ.over.Luc is given as −0.28.

The substance “HSPG2_4004 (SAEPLALGR; listed as Homo sapiens)” showed a logFC.mEQ.over.Luc of −0.37.

Substance “HSPG2_4021 (LNKDGSLR; listed as Homo sapiens)” displayed a logFC.mEQ.over.Luc of −0.02.

“HSPG2_4075 (GCVGEVSVNGKR; listed as Homo sapiens)” yielded a logFC.mEQ.over.Luc of 0.02.

“HSPG2_4133 (DGFKGDLCEHEENPCQLR; listed as Homo sapiens)” returned a logFC.mEQ.over.Luc of −0.14.

“HTRA1_33 (LAAGCPDR; listed as Homo sapiens)” displayed a logFC.mEQ.over.Luc of 0.09.

Take “IFI30_43 (YKTGNLYLR; listed as Homo sapiens)”: the logFC.mEQ.over.Luc turned out to be 0.00.

The substance “IGFBP3_31 (SAGLGPVVR; listed as Homo sapiens)” returned a logFC.mEQ.over.Luc of −0.04.

As for “IGFBP3_32 (AGLGPVVR; listed as Homo sapiens)”, the logFC.mEQ.over.Luc turned out to be 0.28.

“IGFBP3_200 (FSSESKR; listed as Homo sapiens)” gave a logFC.mEQ.over.Luc of −0.09.

For “IGFBP7_101 (AAGGPGVSGVCVCKSR; listed as Homo sapiens)”, the logFC.mEQ.over.Luc was determined as 0.29.

In the case of “LASP1_123 (HEEFEKSR; listed as Homo sapiens)”, the logFC.mEQ.over.Luc is given as −0.53.

For the substance “LGALS1_53 (HGDANTIVCNSKDGGAWGTEQR; listed as Homo sapiens)”, the logFC.mEQ.over.Luc amounted to 0.94.

With “LGALS3BP_447 (FQAPSDYR; listed as Homo sapiens)”, the logFC.mEQ.over.Luc is 0.57.

As for “LOXL1_219 (VASAGVIYPYQPR; listed as Homo sapiens)”, the logFC.mEQ.over.Luc is −0.10.

For “LOXL2_37 (FQQPAPEYHQPQAPANVAKIQLR; listed as Homo sapiens)”, the logFC.mEQ.over.Luc is 0.09.

The record behind these values is patent US20240368668A1, “SUBSTRATES AND BIOMARKERS OF ADAMTS7” (The Broad Institute, Inc., priority 2021, published 2024).
